Drawing on paper PMC10233817, this text covers binding result and Kd for three molecules.

Series [1] concerns the target T1, EWS RRM-RG2-ZnF (UniProt Q01844 361-549). Nature of the series: EMSA.
For series [2], the target named is T2, EWS RRM-RG2 (UniProt Q01844 361-517).
T2 sequence: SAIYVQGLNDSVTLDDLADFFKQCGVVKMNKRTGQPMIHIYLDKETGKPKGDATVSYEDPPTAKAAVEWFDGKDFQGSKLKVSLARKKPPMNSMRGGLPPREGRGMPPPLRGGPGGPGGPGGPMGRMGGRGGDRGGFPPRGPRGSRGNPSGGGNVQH
Briefly: EMSA. A general note: A gel shift assay detects complexes by their altered migration in electrophoresis.

Series [3] deals with T2, EWS RRM-RG2. Nature of the series: ITC. For orientation: In ITC the heat of successive injections is recorded.
Another series deals with T3, EWS RRM (UniProt Q01844 361-447).
T3 sequence: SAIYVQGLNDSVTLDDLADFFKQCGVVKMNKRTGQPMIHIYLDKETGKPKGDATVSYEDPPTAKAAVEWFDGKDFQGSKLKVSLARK
Nature of the series: ITC.

Series [4] addresses T1, EWS RRM-RG2-ZnF. Nature of the series: ITC.
Target sequence in this assay (Q01844 361-549): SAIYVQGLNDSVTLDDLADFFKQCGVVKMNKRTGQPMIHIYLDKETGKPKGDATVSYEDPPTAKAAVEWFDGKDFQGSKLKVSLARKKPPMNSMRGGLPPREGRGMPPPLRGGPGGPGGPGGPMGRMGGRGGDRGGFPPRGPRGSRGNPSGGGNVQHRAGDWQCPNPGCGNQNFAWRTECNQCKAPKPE
Series [5] has as its target T2, EWS RRM-RG2. Nature of the series: EMSA. The source holds these as a separate data set.
Series [6] addresses T1, EWS RRM-RG2-ZnF. Nature of the series: EMSA. This is another data set of the same source.

Read-outs that look alike come from different tables or passages of the source.

B1: RNA:DNA hybrid (DNA:RNA)
RNA: GCAGCUGGCACGACAGGUAUGAAUC
DNA: GATTCATACCTGTCGTGCCAGCTGC
B1: the binding result with EWS RRM-RG2-ZnF [1] and with EWS RRM-RG2 [2] was “binds” in each case.

TAAGGGAGGGCGGGAGGGAA (structured_DNA) [pu20m2 DNA G4]: the Kd is 3.28 ± 0.5 µM with EWS RRM-RG2 [3], 22.3 ± 6.8 µM in the series with EWS RRM and 3.96 ± 0.7 µM with EWS RRM-RG2-ZnF [4].

As for GGAUCUUUAACUACUCAAGAUACUGAACAUGACAUGGUA (structured_RNA) [SON-GGU], the binding result with EWS RRM-RG2 [5] and in the series with EWS RRM-RG2-ZnF [6] was “binds” each time.

By Kd is commonly meant the constant that tells how readily two partners part at equilibrium.
